We go through three molecules from patent US20200291121A1 (JOINT STOCK COMPANY BIOCAD, published 2020).

In experiment [1] the target is IL-5Rα stably expressed on CHO-IL-5R cells. Description: cell-based or functional assay.
For experiment [2], the target named is T1, mouse IL-5Rα, recombinant extracellular domain (mouse, UniProt P21183 18-339).
T1 construct: extracellular domain; also called animal IL-5Rα
T1 sequence (looked up): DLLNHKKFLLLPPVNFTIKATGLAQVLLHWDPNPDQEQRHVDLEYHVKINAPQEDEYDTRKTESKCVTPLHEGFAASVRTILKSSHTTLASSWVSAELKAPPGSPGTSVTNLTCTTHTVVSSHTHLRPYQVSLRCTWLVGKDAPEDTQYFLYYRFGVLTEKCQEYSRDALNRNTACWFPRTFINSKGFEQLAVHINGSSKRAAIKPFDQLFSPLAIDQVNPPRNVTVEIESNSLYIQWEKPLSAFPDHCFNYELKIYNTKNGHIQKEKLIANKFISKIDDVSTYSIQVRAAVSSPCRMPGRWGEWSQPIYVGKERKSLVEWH
Briefly: BLI (Octet RED 384), antibody immobilised on AR2G sensors, antigen in solution. (Biolayer interferometry detects binding as a change in optical thickness at a sensor tip.)

Experiment [3] deals with T2, cynomolgus monkey IL-5Rα, recombinant extracellular domain (cynomolgus monkey, UniProt C3VEW9 21-342).
T2 construct: extracellular domain; also called macaque IL-5Ra; cynomolgus monkey antigen (IL-5Rα)
T2 sequence: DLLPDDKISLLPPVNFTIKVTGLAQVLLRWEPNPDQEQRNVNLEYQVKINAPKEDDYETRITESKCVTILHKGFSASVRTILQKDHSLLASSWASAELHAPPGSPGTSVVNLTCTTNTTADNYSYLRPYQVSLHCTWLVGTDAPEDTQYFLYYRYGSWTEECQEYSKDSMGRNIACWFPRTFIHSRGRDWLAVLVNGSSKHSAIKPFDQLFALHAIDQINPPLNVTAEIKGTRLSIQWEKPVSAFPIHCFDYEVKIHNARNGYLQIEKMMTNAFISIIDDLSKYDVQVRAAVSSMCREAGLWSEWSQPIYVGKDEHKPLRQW
Description: BLI (Octet RED 384), antibody immobilised on AR2G sensors, cynomolgus IL-5Rα in solution, 30 °C, 1:1 global model. On the procedure: (§1) Experimental study of binding affinity of antibodies to animal IL-5Rα antigen was performed on Forte Bio Octert RED 384. Antibodies at a concentration of 20 μg/ml were immobilized on the surface of AR2G sensors (Forte Bio) according to a standard protocol and manufacturer's instructions. Analysis was conducted at 30° C. using PBS comprising 0.1% Tween 20 and 0.1% BSA as a working buffer. After baseline recording, the sensors were immersed into wells containing antigen solution (animal IL-5Rα) for 300 seconds, where the complex was associated. Complex dissociation in buffer solution was then detected for 600 seconds.
Binding curves, after subtracting a reference signal, were analyzed using Octet Data Analysis (Version 9.0) software in accordance with the standard procedure and using 1:1 Global interaction model. Anti-IL-5Rα antibodies specifically bind to cynomolgus monkey antigen. Table B. FIG. 16,17,18.

Experiment [4] has as its target T3, human IL-5Rα (interleukin 5 receptor α-chain), recombinant extracellular domain (human, UniProt Q01344 21-342).
T3 construct: extracellular domain; also called IL-5Ra; human antigen; not shown: C-terminal tag (EPEA, Fc or H6F)
T3 sequence (looked up): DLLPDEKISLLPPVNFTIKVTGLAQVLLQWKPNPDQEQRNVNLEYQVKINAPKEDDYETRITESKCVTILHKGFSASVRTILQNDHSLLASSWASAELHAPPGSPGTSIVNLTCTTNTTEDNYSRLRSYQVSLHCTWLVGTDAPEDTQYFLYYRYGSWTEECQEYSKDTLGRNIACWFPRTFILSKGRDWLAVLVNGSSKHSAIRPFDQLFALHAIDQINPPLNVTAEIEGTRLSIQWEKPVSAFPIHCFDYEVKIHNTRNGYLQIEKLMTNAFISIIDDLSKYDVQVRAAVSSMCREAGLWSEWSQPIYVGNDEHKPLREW
Briefly: BLI (Octet RED 384), human IL-5Rα immobilised on AR2G sensors, full-length antibody in solution, 30 °C, 1:1 global model. On the procedure: as §1, with “to human” for “to animal”, “384. Human IL-5Rα” for “384. Antibodies”, “μg/ml was” for “μg/ml were”, “sensors (ForteBio)” for “sensors (Forte Bio)”, “containing antibody” for “containing antigen”, “solution” for “solution (animal IL-5Rα)”
Binding curves, after subtracting a reference signal, were analyzed using Octet Data Analysis (Version 9.0) software in accordance with the standard procedure and using 1:1 Global interaction model. Anti-IL-5Rα antibodies specifically bind to human antigen with high affinity. Table A (FIG. 11, 12, 13)

IL-5Rα stably expressed on CHO-IL-5R cells, sequence (Q01344 whole entry, the tested form may be a part): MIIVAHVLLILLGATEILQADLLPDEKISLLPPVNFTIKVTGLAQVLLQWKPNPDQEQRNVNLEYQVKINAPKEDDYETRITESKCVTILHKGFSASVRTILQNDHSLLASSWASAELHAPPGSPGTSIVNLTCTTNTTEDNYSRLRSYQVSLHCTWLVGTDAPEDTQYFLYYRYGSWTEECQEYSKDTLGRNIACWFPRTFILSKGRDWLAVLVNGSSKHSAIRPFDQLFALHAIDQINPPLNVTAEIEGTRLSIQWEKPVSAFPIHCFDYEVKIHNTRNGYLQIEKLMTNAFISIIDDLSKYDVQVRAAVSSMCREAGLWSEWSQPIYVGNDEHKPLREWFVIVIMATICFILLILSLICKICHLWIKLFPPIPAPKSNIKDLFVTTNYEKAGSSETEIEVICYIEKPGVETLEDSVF

B1: BCD133-03-020 (antibody, human IgG1, kappa)
heavy: not shown
light: QAGLTQPPSVSAAPGQRVTISCSGSRSNIGSGYDVHWYQQVPGTAPKLLIFDDNNRPSGVPDRFSGSKSGTSASLAITGLQAEDEADYYCQSYDSSLSGHVVFGGGTKLTVLRTVAAPSVFIFPPSDEQLKSGTASVVCLLNNFYPREAKVQWKVDNALQSGNSQESVTEQDSKDSTYSLSSTLTLSKADYEKHKVYACEVTHQGLSSPVTKSFNRGEC
Take B1: the “ADCC efficacy (EC50) on CHO-IL-5R cells with PBMC, relative to Benralizumab” value (from here on “ADCC efficacy (EC50) … relative to Benralizumab”) in experiment [1] was 1.6 times (against Benralizumab). In addition, in experiment [2], the binding result is listed as “no binding”. In addition, the Kd (usually a measure of binding affinity in units of concentration) is 12.2 nM in experiment [3] and 0.667 nM in experiment [4].

B2: BCD133-03-002 (antibody, human IgG1, kappa)
heavy: not shown
light: QAGLTQPPSVSAAPGQRVTISCSGSRSNIGSGYDVHWYQQVPGTAPKLLIFDDNNRPSGVPDRFSGSKSGTSASLAITGLQAEDEADYYCQSYDSSLSGHVVFGGGTKLTVLRTVAAPSVFIFPPSDEQLKSGTASVVCLLNNFYPREAKVQWKVDNALQSGNSQESVTEQDSKDSTYSLSSTLTLSKADYEKHKVYACEVTHQGLSSPVTKSFNRGEC
B2: the “ADCC efficacy (EC50) … relative to Benralizumab” value in experiment [1] is 1.6 times (against Benralizumab). Moreover, the binding result in experiment [2] was “no binding”. The Kd in experiment [3] was 5.53 nM; in experiment [4], 0.527 nM.

B3: BCD133-03-021 (antibody, human IgG1, kappa, V domains shown)
VH: QVQLQESGGGLVQPGGSLRLSCAASGFTFSNYAMSWVRQAPGKGLEWVSAINSGGKSTNYADSVKGRFTISRDNAKNTLYLQMNSLRAEDTAVYYCADYATNYGVPYFGSWGQGTMVTVSS
VL: QSVLTQPPSVSAAPGQRVTISCSGSRSNIGSGYDVHWYQQLPGTAPKLLIYDDNNRPSGVPDRFSGSKSGTSASLAITGLQAEDEADYYCQSYDSSLSGHVVFGGGTKLTVLR
In the case of B3, the “ADCC efficacy (EC50) … relative to Benralizumab” value in experiment [1] is 1.6 times (against Benralizumab). Further, the binding result in experiment [2] was “no binding”. The results for the Kd in experiment [3] and in experiment [4] were 16.8 nM and 0.0224 nM, respectively.
